Measured values published in patent US20230235058A1.

Legend:
L48R (Mus musculus) = test: flow cytometry, GFP-positive transfected HEK-293T cells, fluorochrome-conjugated antibody at 10 ug/ml, Geo-mean relative to wild type
[1] = biological target: human BTLA extracellular region / murine CD28 construct with K41E, on HEK-293T cells (human; mouse) (UniProt P31041); test: as above
[2] = biological target: human BTLA extracellular region / murine CD28 construct with Y39R, on HEK-293T cells (human; mouse) (UniProt P31041); test: as above
human BTLA extracellular region / murine CD28 construct with Y39R, on HEK-293T cells (human; mouse), sequence (P31041 other isoform, or with tags, fused parts or gaps Y39R Y39R): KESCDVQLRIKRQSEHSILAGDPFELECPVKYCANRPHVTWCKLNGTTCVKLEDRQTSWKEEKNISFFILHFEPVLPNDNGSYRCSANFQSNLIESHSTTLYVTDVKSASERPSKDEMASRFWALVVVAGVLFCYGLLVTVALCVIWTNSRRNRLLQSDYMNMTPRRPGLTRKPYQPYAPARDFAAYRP

[3] = biological target: full length human BTLA expressed on cells (human) (UniProt Q7Z6A9); test: cell-based or functional assay

human BTLA extracellular region / murine CD28 construct with K41E, on HEK-293T cells (human; mouse), sequence (P31041 other isoform, or with tags, fused parts or gaps K41E K41E): as the sequence (P31041 other isoform, or with tags, fused parts or gaps Y39R Y39R) above, with R9Y, K11E counted along it

| binding as % of binding to wild-type BTLA (L48R (Mus musculus)) | binding as % of binding to wild-type BTLA [1] | binding as % of binding to wild-type BTLA [2] | inhibition of NFkB signal, IC50 [3] | maximal inhibition of NFkB signal [3] | Binder |
| --- | --- | --- | --- | --- | --- |
| 102% | 91.4% | 60% |  |  | 2.8.6 (antibody, V domains shown) VH: QVQLKESGPGLVAPSQSLSITCTVSGFSLTTYGVHWVRQSPGKGLEWLGVMWPGGRTSYNPAPMSRLSISKDNSKSQVFLKMNSLQTDDTAMYYCVRGDYEYDYYAMDYWGQGTSVTVSS VL: QIVLSQSPAILSASPGEKVTMTCRASSSVSYMHWYQQKPGSSPKPWIYATSNLASGVPARFSGSGSGTSYSLTISRMEAEDAATYYCHQWSSNPYTFGGGTKLEIK |
| 145% | 1.8% | 0.76% |  |  | 11.5.1 (antibody, V domains shown) VH: EVQLQESGPSLVKPSQTLSLTCSVTGDSITSAYWNWIRKFPGNKLEYMGYISYSGSTYFNPSLKSRISITRNTSKNQYYLQLNSVTTEDTATYYCARSHYYGYYFDYWGHGTTLTVSS VL: DIVLTQSPASLAVSLGQRATISCRASETIDSYGDSLMHWYQQKAGQPPKLLIYRASNLESGIPARFSGSGSRTDFTLTINPVEADDVATYYCQQTDEDPYTFGGGTKLEIK |
|  |  |  | 3.8 nM | 18% | 22B3 hIgG4PAA (antibody, from another filing, V domains shown) VH: QVQLVQSGAEVKKPGASVKVSCKASGFSLSSYGVSWVRQAPGQGLEWMGAISYDGITYYASWAKSRVTMTRDTSTSTVYMELSSLRSEDTAVYYCARGDYYDDYVYVYALDIWGQGTLVTVSS VL: EIVLTQSPGTLSLSPGERATLSCQASQSISTALAWYQQKPGQAPRLLIYAASTLASGIPDRFSGSGSGTDFTLTISRLEPEDFAVYYCQQGYSSSNLDNVFGGGTKVEIKR |
